Experiment: soluble on expression in E. coli; label from the status in PepcDB or PDB records

Row | Sequence | soluble on expression in E. coli
1 | MRGSHHHHHHTDPALRAKRAVVVFSGGQDSTTCLVQALQQYDEVHCVTFDYGQRHRAEIDVARELALKLGARAHKVLDVTLLNELAVSSLTRDSIPVPDYEPEADGIPNTFVPGRNILFLTLAAIYAYQVKAEAVITGVCETDFSGYPDCRDEFVKALNHAVSLGMAKDIRFETPLMWIDKAETWALADYYGKLDLVRNETLTCYNGFKGDGCGHCAACNLRANGLNHYLADKPTVMAAMKQKTGLRGLCGR | soluble
2 | MDLFKRKVKEWVYSLSTDDHYAEYNPDETPTFNMGKRLNSNNGQVNPSQMHLNSVDEEMSMGFQNGVPSNEDINIDEFTSTESNDGVSETLLAWRHIDFWTSEHNPDLNATLSDPCTQNDITHAEEDLEVSFPNPVKASFKIHDGQEDLESMTGTSGLFYGFQLMTLDQVVAMTQAWRNVAKNLNKRSQQGLSHVTSTGSSSSMERLNGNKFKLPNIPDQKSIPPNAVQPVYAHPAWIPLITDNAGNHIGVDLAPGPNGKYAQIITFGRDFDTKFVIAENWGEFLLSFANDLEAGNWYLVDDNDDYFSGDGELVFRDKKSNGPIQDYFEVLKRRTWIKYQENLRSQQQKSQPDTSLQEQKYVPASQKKVAAEQPSTLNAESIKGEDSGSADVQSVQDHESVKIVKTEPSEAETTTVNTESLGQAEHEIKADNVDIKQESERKEDEKQPKVEEKEHVENEHVTESAKKDDDVNKQTEEMNKKEENEIRSDDAKVEEAREEFENIAL | soluble
3 | MTISRTQQIQQLEQEWTSPRWKNITRPYSAEDVIKLRGSVNPECTFAQNGAKKLWELLHGGSRKGYINCLGALTGGQALQQAKAGVEAIYMSGWQVAADANTASSMYPDQSLYPVDSVPAVVKRINNSFRRADQIQWSNNIEPGSKGYTDYFLPIVADAEAGFGGVLNAFELMKAMIEAGAAGVHFEDQLAAVKKCGHMGGKVLVPTQEAIQKLVAARLAADVLGVPTLLIARTDADAADLLTSDCDPYDREFITGDRTAEGFFRTRAGIEQAISRGLAYAPYADLVWCETSTPDLALAKRFADAVHAQFPGKLLAYNCSPSFNWKKNLTDQQIASFQDELSAMGYKYQFITLAGIHSMWFNMFDLAHAYAQGEGMKHYVEKVQQPEFASVDRGYTFASHQQEVGTGYFDKVTNIIQGGASSVTALTGSTEEQQF | soluble
4 | QIAPLFWLENTIEKVEGMRPYTPLEMAGREVYIREGCYVCHSQMIRPMRDEVERYGHYSLAAESMYDHPFQWGSKRTGPDLARVGGRYSDDWHVDHMRDPQSVVPESVMPKYGYLERTMIDGKYIGDLMAANAIVGVPYTDEMIEAAQADFAAQADPDSDYDGLLERYGDKVNVRNFDGQPGVSEADALIAYLQMLGT | not soluble
5 | MPAALIKDFLLTQGLKLPLDEVRAAYLTAQTVMDMGTASIDRSVLWRSDEGWKLADYLSCDNVREDALKRLFMALDSVFSRSTGVRSAAVYALMPSENQAFQLICLSRQGEVLENLWDLDEAAGKVSLACRSAQSGWMNVASDVRRWLDLGELSGERNHASAAQISIPVCTESGGVLGVVHVEFECAECAGTAAQVEWVALALALSEPLKLLLGMSAGKDGSEDV | not soluble
6 | MAHHHHHHMDLVQLQRILSTHDERVVKVFVNHIPEVGLRKIDDCVLEYMLKMLEGQTSSESYLPEEIIEETMKLYFREFDVFSDSEEKLNKSTAAICQQMLKEGITKKPSEESSRLASAVNIGRQYEESLKRATMIKSVGKVTTANTNEDWTWETKRSAAKDMRKKRREDEKKAILAEEYEAFLRKRGISNTTAVTKIHHKGEGTNYSTDIRCEAIHIQLGKQVLLDDTDLVLLTGHKYGLIGRNGAGKTTLLRALAERELEGVSPFMQILHVEQEIVAGAETPLEVLLATDVERAQLLHEEQELLKQNDTEANTRLNEVYARLDAIDAHSAEARAATILHGLSFTQDMMTSPTKQLSGGWRMRVALARALFVEPDVLLLDEPTNHLDLFAVLWLEQFLRDWQKTLIVVSHSRTFLNNVCSEIIHLIGHHLHYYNGNYDQFEITRVEQERQQKKQHAAQEKQRAHIQAFIDKFRYNANRAKMAQSRIKALERMEMVADVVTDPQFAFTFPDAEPVSGSFIEMVDCEFGYKPGVSLFKDVNMGIDESSRIVLVGANGVGKSTFMNVCTGALEPRSGTVVRNKKIRVAHFAQHNMESLTPQLSSLEFLRSKFPHMEDQQLRAHLGSMGLSGERALQPIYTLSGGQKSRLVLAWITFQKPHLLLLDEPTNHLDIDTVNALIEALLAYNGGLLVISHDEYFITSLCDDIFVCEDNTVKKFDGDFAEYRKHVVKMMK | soluble
7 | MHHHHHHSSGMNWTVDIPIDQLPSLPPLPTDLRTRLDAALAKPAAQQPTWPADQALAMRTVLESVPPVTVPSEIVRLQEQLAQVAKGEAFLLQGGDCAETFMDNTEPHIRGNVRALLQMAVVLTYGASMPVVKVARIAGQYAKPRSADIDALGLRSYRGDMINGFAPDAAAREHDPSRLVRAYANASAAMNLVRALTSSGLASLHLVHDWNREFVRTSPAGARYEALATEIDRGLRFMSACGVADRNLQTAEIYASHEALVLDYERAMLRLSDGDDGEPQLFDLSAHTVWIGERTRQIDGAHIAFAQVIANPVGVKLGPNMTPELAVEYVERLDPHNKPGRLTLVSRMGNHKVRDLLPPIVEKVQATGHQVIWQCDPMHGNTHESSTGFKTRHFDRIVDEVQGFFEVHRALGTHPGGIHVEITGENVTECLGGAQDISETDLAGRYETACDPRLNTQQSLELAFLVAEMLRD | soluble
8 | MGHHHHHHSHMEWKVKIRSDGTRYITKRPVRDRILKERALKIKEERSGMTTDDDTMSEMKMGRYWSKEERKQHLVRAKEQRRRREFMMRSRLECLKESPQSGSEGKKEINIIELSHKKMMKKRNKKILDNWMTIQELMTHGAKSPDGTRVHNAFLSVTTV | not soluble
9 | MIITIPIKNQKDIGTPSDSVVVLGYFDGIHKGHQELFRVANKAARKDLLPIVVMTFNESPKIALEPYHPDLFLHILNPAERERKLKREGVEELYLLDFSSQFASLTAQEFFATYIKAMNAKIIVAGFDYTFGSDKKTAEDLKNYFDGEVIIVPPVEDEKGKISSTRIRQAILDGNVKEAGKLLGAPLPSRGMVVHGNARGRTIGYPTANLVLLDRTYMPADGVYVVDVEIQRQKYRAMASVGKNVTFDGEEARFEVNIFDFNQDIYGETVMVYWLDRIRDMTKFDSVDQLVDQLKADEEVTRNWS | soluble
10 | ADTYAATRYPVILVHGLAGTDKFANVVDYWYGIQSDLQSHGAKVYVANLSGFQSDDGPNGRGEQLLAYVKQVLAATGATKVNLIGHSQGGLTSRYVAAVAPQLVASVTTIGTPHRGSEFADFVQDVLKTDPTGLSSTVIAAFVNVFGTLVSSSHNTDQDALAALRTLTTAQTATYNRNFPSAGLGAPGSCQTGAATETVGGSQHLLYSWGGTAIQPTSTVLGVTGATDTSTGTLDVANVTDPSTLALLATGAVMINRASGQNDGLVSRCSSLFGQVISTSYHWNHLDEINQLLGVRGANAEDPVAVIRTHVNRLKLQGV | soluble
11 | EGGDFVVGMVTDSGDIDDKSFNQQVWEGISRFAQENNAKCKYVTASTDAEYVPSLSAFADENMGLVVACGSFLVEAVIETSARFPKQKFLVIDAVVQDRDNVVSAVFGQNEGSFLVGVAAALKAKEAGKSAVGFIVGMELGMMPLFEAGFEAGVKAVDPDIQVVVEVANTFSDPQKGQALAAKLYDSGVNVIFQVAGGTGNGVIKEARDRRLNGQDVWVIGVDRDQYMDGVYDGSKSVVLTSMVKRADVAAERISKMAYDGSFPGGQSIMFGLEDKAVGIPEENPNLSSAVMEKIRSFEEKIVSKEIVVPVRSARMMN | soluble
12 | MARRNDHTREELVALTLDRVKQFLDTHSYHELSLRKVATMIGYVPSTLVNVFGNYNLLLLHVVAQTLDELAQEAQQAVKSTTYPKDALYQLAYCYHDFAKRNPYRWQLIFEHNMNGEMLPEWQAQRINNMTSMLEDLLKVIAPLRSEQEVLQASRVLWSGVHGITILSVDDKFFANEPIDGNALINNLLNHYLANW | not soluble
13 | GPGSMSEPHVPTAAAQQPSAEATANAALTADSTVHTSPQAPPPPAASGASTVSANVAEVKSVTATLSDVADSTEPLLVGKVVSSEIAQARSQPCTSDLNTAQSGAGAPVDANVGEQDRCSPPAKSTSSSSSSHSGEESSDEAADFETKELMFAFGRYVGQVNPQTGLRHGHGCQYYNNGNVYTGEWRDGAPDGFGEKRYRNGDVYRGNWRQGKRSGRGVYLFVQGDTYEGMYADDKPEGQGTYATLKGDRYTGQWKAGQRHGTGRETLANGQVFVGNWRYGKKQGRGKLYLPGSEKCIYGIWNNDRFFRELTANEMGADGAEDVVDELGTQRRPSALSVALPGAKAPPPSASLADRVRMGVTALENRMESLGKALERVITGGDGDESAHVPRAAAMGAASSTAGDVAVSEECTEPPAQGFVVNSHQANDEDGEQG | soluble
14 | MAHHHHHHMKQECNVCYFNLPDPESTLGPYDNELNYFTWGPGFEYEPEPQRKPLSIEESFENSEESEESVADIQQLEEKVDESDVRIYFNEKSSGGKISIDNASYNARKLGLAPSSIDEKKIKELYGDNLTYEQYLEYLSICVHDKDNVEELIKMFAHFDNNCTGYLTKSQMKNILTTWGDALTDQEAIDALNAFSSEDNIDYKLFCEDILQ | soluble
15 | MSLYKLYSMQRSGNSYKVRLALALLDAPYRAVEVDILRGESRTPDFLAKNPSGQVPLLETAPGRYLAESNAILWYLAVGTSLAPDTRMDRAEALQWMFFEQHALEPNIGSAYFWLCLVKGGRDLQTHALEDWLERGYAALQVMENHLKTNDYFAAGQLTIADIALYGYTHVADQCDFDLSTFPAVNAWLRRVEQTPGFITMDWTPETIAADPTSFAAEGHHHHHH | soluble
16 | MIPFVWGICMPTLRNPQYRAFARRKLYRRQDGKCFYCHRDLTTKKTGELALTIEHRKAKMKGGTDDLKNLVAACWHCNHHRGEQMNATKQRKEAKALSRQRRMLARDCRSKADSQADGKAHEQLASKVEGNGANRTPSVHTARSEGLGLEHHHHHH | soluble
17 | MAIKSPPTLIPLSHLSGEELQAHLRFNRVTDEKGRYLPFDELQYRIKKGENVDVAWTLTRLARNAAIQRINYCNEAGEQAGFNITPVIAEACELVDKRATALALKDQTERLRGAGAELSQLRLEEPITSSQLEGANTTTLVARKMLETGRSPRTEDEHMIAGNARLMAEIPHLLAEPLTPALIRQLHAIGMGGINDAKYRPGEFRETDDVVIADYDGNIVHQPPAAALLPERLEKVCQWLNSHEGYIHPLVRACILHFMLAHEHPFRDGNGRTSRALFYWYMLKSGYDVFKYISISRLLHAAPVKYAASYQYTESDGMDLTYFLEYQAGVIKRALQNWQQHIDEITQRSAKLDSVLFSSGVLKRLNPRQVTLLNVMLANPGKEYTVAEISASLGVSDNTVRADLRTIVKEGFAQEKKINDQQAVYFAHYPL | not soluble

From the DeepSol protein solubility set
